Measurements as given in the supplement of paper PMC9112550, “Optimization of the antimicrobial peptide Bac7 by deep mutational scanning” (BMC Biology, 2022).

These sequences were tested on Escherichia coli TOP10 (assay: shrunken log2 fold change of peptide-encoding DNA abundance (4.5 h post-induction vs induction); higher = less antimicrobial activity (less host growth inhibition)). Settings: time post-induction: 4.5 h; library: site-saturation at positions 5, 18, 19, 20.
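Note: peptides expressed intracellularly from a pBAD plasmid library in pooled LB shake-flask culture, induced with 0.3% L-arabinose, DNA abundance read by NGS, three biological replicates, DESeq2 with apeglm shrinkage.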

| Sequence | shrunken log2 fold change |
| --- | --- |
| RRIRHRPPRLPRPRPRPPMSPRP | 0.0891 |
| RRIRQRPPRLPRPRPRPAQEPRP | 0.852 |
| RRIRKRPPRLPRPRPRPQEKPRP | -0.0233 |
| RRIRHRPPRLPRPRPRPNTQPRP | -0.248 |
| RRIRHRPPRLPRPRPRPDMLPRP | -0.481 |
| RRIRMRPPRLPRPRPRPFGPPRP | -0.159 |
| RRIRKRPPRLPRPRPRPKPPPRP | 0.76 |
| RRIRTRPPRLPRPRPRPQSMPRP | 0.13 |
| RRIRERPPRLPRPRPRPTYMPRP | -0.121 |
| RRIRLRPPRLPRPRPRPFCSPRP | 1.91 |
| RRIRERPPRLPRPRPRPCLGPRP | -0.0295 |
| RRIRGRPPRLPRPRPRPFYMPRP | -0.0339 |
| RRIRPRPPRLPRPRPRPAEPPRP | -0.0331 |
| RRIRVRPPRLPRPRPRPILFPRP | -0.395 |
| RRIRYRPPRLPRPRPRPNFKPRP | 0.633 |
| RRIRLRPPRLPRPRPRPCYHPRP | -0.569 |
| RRIRFRPPRLPRPRPRPCYEPRP | -0.228 |
| RRIRMRPPRLPRPRPRPLQLPRP | 0.102 |
| RRIRTRPPRLPRPRPRPPWWPRP | 0.928 |
| RRIRWRPPRLPRPRPRPVSGPRP | -0.0172 |
| RRIRQRPPRLPRPRPRPFNGPRP | -0.3 |
| RRIRERPPRLPRPRPRPEQWPRP | 0.127 |
| RRIRARPPRLPRPRPRPEYGPRP | 0.11 |
| RRIRMRPPRLPRPRPRPKFWPRP | 1.87 |
| RRIRKRPPRLPRPRPRPWECPRP | 0.033 |

| Sequence | shrunken log2 fold change |
| --- | --- |
| RRIRCRPPRLPRPRPRPWGHPRP | -0.092 |
| RRIRIRPPRLPRPRPRPQTRPRP | -0.196 |
| RRIRGRPPRLPRPRPRPIPPPRP | 0.548 |
| RRIRDRPPRLPRPRPRPNNGPRP | -0.0483 |
| RRIRMRPPRLPRPRPRPWTDPRP | -0.035 |
| RRIRVRPPRLPRPRPRPYKFPRP | -0.475 |
| RRIRFRPPRLPRPRPRPWTWPRP | 0.0306 |
| RRIRYRPPRLPRPRPRPDHFPRP | 0.00911 |
| RRIRYRPPRLPRPRPRPCFHPRP | -1.42 |
| RRIRTRPPRLPRPRPRPYTNPRP | -0.0771 |
| RRIRRRPPRLPRPRPRPMEIPRP | -0.0055 |
| RRIRYRPPRLPRPRPRPYGPPRP | -0.143 |
| RRIRCRPPRLPRPRPRPVEYPRP | -0.0499 |
| RRIRIRPPRLPRPRPRPGPTPRP | 0.175 |
| RRIRIRPPRLPRPRPRPDPRPRP | 0.132 |
| RRIRSRPPRLPRPRPRPDAIPRP | 0.339 |
| RRIRFRPPRLPRPRPRPGLEPRP | -0.0646 |
| RRIRDRPPRLPRPRPRPCKWPRP | -0.203 |
| RRIRARPPRLPRPRPRPCDEPRP | 0.085 |
| RRIRGRPPRLPRPRPRPEKMPRP | 0.59 |
| RRIRGRPPRLPRPRPRPSHLPRP | -0.158 |
| RRIRQRPPRLPRPRPRPKQRPRP | 0.0443 |
| RRIRRRPPRLPRPRPRPERVPRP | 0.125 |
| RRIRERPPRLPRPRPRPLNFPRP | -0.34 |
| RRIRKRPPRLPRPRPRPTKNPRP | 0.392 |

| Sequence | shrunken log2 fold change |
| --- | --- |
| RRIRARPPRLPRPRPRPMYGPRP | 0.22 |
| RRIRARPPRLPRPRPRPHSDPRP | 0.39 |
| RRIRKRPPRLPRPRPRPLVTPRP | 0.24 |
| RRIRGRPPRLPRPRPRPILEPRP | 0.229 |
| RRIRTRPPRLPRPRPRPSSPPRP | -0.312 |
| RRIRIRPPRLPRPRPRPCLIPRP | -0.337 |
| RRIRWRPPRLPRPRPRPTHPPRP | 0.709 |
| RRIRPRPPRLPRPRPRPYWAPRP | -0.365 |
| RRIRWRPPRLPRPRPRPAAHPRP | 0.167 |
| RRIRDRPPRLPRPRPRPWSWPRP | 0.215 |
| RRIRQRPPRLPRPRPRPNWQPRP | -0.0119 |
| RRIRERPPRLPRPRPRPYLSPRP | -0.515 |
| RRIRPRPPRLPRPRPRPCMFPRP | -0.577 |
| RRIRIRPPRLPRPRPRPDHVPRP | -0.23 |
| RRIRTRPPRLPRPRPRPNRHPRP | -0.36 |
| RRIRHRPPRLPRPRPRPLWPPRP | 0.27 |
| RRIRSRPPRLPRPRPRPMCIPRP | -0.0138 |
| RRIRLRPPRLPRPRPRPQFDPRP | -0.293 |
| RRIRCRPPRLPRPRPRPFMMPRP | -0.266 |
| RRIRLRPPRLPRPRPRPPCTPRP | 0.036 |
| RRIRDRPPRLPRPRPRPAWLPRP | 0.266 |
| RRIRARPPRLPRPRPRPREPPRP | 0.199 |
| RRIRARPPRLPRPRPRPCPRPRP | 0.898 |
| RRIRSRPPRLPRPRPRPYHKPRP | -0.404 |
| RRIRGRPPRLPRPRPRPERTPRP | 1.21 |

| Sequence | shrunken log2 fold change |
| --- | --- |
| RRIRRRPPRLPRPRPRPKNGPRP | 0.259 |
| RRIRFRPPRLPRPRPRPRWFPRP | -0.111 |
| RRIRWRPPRLPRPRPRPDPTPRP | 0.691 |
| RRIRFRPPRLPRPRPRPEALPRP | 0.0209 |
| RRIRERPPRLPRPRPRPHDGPRP | -0.532 |
| RRIRKRPPRLPRPRPRPGGHPRP | 0.0505 |
| RRIRTRPPRLPRPRPRPGPMPRP | 0.101 |
| RRIRTRPPRLPRPRPRPWLDPRP | -0.181 |
| RRIRRRPPRLPRPRPRPDIYPRP | 0.0543 |
| RRIRKRPPRLPRPRPRPTCWPRP | 0.499 |
| RRIRDRPPRLPRPRPRPFKQPRP | -0.235 |
| RRIRFRPPRLPRPRPRPQPTPRP | 0.597 |
| RRIRFRPPRLPRPRPRPADWPRP | 0.36 |
| RRIRFRPPRLPRPRPRPERDPRP | -0.0622 |
| RRIRTRPPRLPRPRPRPSMDPRP | 2.57e-05 |
| RRIRKRPPRLPRPRPRPPSNPRP | 0.714 |
| RRIRQRPPRLPRPRPRPDINPRP | -0.412 |
| RRIRNRPPRLPRPRPRPRLRPRP | 0.0785 |
| RRIRCRPPRLPRPRPRPFDMPRP | -0.309 |
| RRIRARPPRLPRPRPRPDYRPRP | 0.0573 |
| RRIRMRPPRLPRPRPRPFDHPRP | -0.00544 |
| RRIRVRPPRLPRPRPRPQGTPRP | -0.289 |
| RRIRHRPPRLPRPRPRPCRNPRP | -0.166 |
| RRIRHRPPRLPRPRPRPWHCPRP | 0.162 |
| RRIRRRPPRLPRPRPRPSQCPRP | 0.0735 |

| Sequence | shrunken log2 fold change |
| --- | --- |
| RRIRTRPPRLPRPRPRPFNQPRP | -0.163 |
| RRIRQRPPRLPRPRPRPGEGPRP | 0.00168 |
| RRIRKRPPRLPRPRPRPRTPPRP | 0.714 |
| RRIRLRPPRLPRPRPRPQHAPRP | -0.0395 |
| RRIRFRPPRLPRPRPRPWCDPRP | -0.329 |
| RRIRMRPPRLPRPRPRPNDTPRP | 0.11 |
| RRIRWRPPRLPRPRPRPRLKPRP | 0.689 |
| RRIRQRPPRLPRPRPRPKNEPRP | -0.136 |
| RRIRPRPPRLPRPRPRPQDDPRP | -0.367 |
| RRIRQRPPRLPRPRPRPCLRPRP | -0.379 |
| RRIRLRPPRLPRPRPRPRFNPRP | -0.223 |
| RRIRLRPPRLPRPRPRPSDKPRP | -0.179 |
| RRIRERPPRLPRPRPRPPWCPRP | 0.217 |
| RRIRRRPPRLPRPRPRPNNTPRP | 0.00573 |
| RRIRYRPPRLPRPRPRPHLTPRP | -0.466 |
| RRIRMRPPRLPRPRPRPNSSPRP | -0.1 |
| RRIRCRPPRLPRPRPRPVYCPRP | -0.755 |
| RRIRGRPPRLPRPRPRPWIFPRP | 0.224 |
| RRIRMRPPRLPRPRPRPARTPRP | 1.53 |
| RRIRGRPPRLPRPRPRPKVVPRP | 0.12 |
| RRIRRRPPRLPRPRPRPTFIPRP | -0.0768 |
| RRIRARPPRLPRPRPRPWREPRP | -0.0619 |
| RRIRNRPPRLPRPRPRPIIPPRP | -0.0623 |
| RRIRWRPPRLPRPRPRPAYKPRP | -0.182 |
| RRIRWRPPRLPRPRPRPLKRPRP | 0.612 |

| Sequence | shrunken log2 fold change |
| --- | --- |
| RRIRHRPPRLPRPRPRPHTAPRP | -0.337 |
| RRIRVRPPRLPRPRPRPVQKPRP | 0.0709 |
| RRIRQRPPRLPRPRPRPQYLPRP | -0.131 |
| RRIRDRPPRLPRPRPRPGCVPRP | 0.616 |
| RRIRIRPPRLPRPRPRPIKVPRP | -0.398 |
| RRIRQRPPRLPRPRPRPTTKPRP | -0.122 |
| RRIRVRPPRLPRPRPRPGSWPRP | 0.463 |
| RRIRERPPRLPRPRPRPLLHPRP | -0.288 |
| RRIRGRPPRLPRPRPRPMKPPRP | 0.276 |
| RRIRVRPPRLPRPRPRPGTPPRP | -0.00585 |
| RRIRYRPPRLPRPRPRPKPDPRP | 0.0117 |
| RRIRARPPRLPRPRPRPNIPPRP | -0.223 |
| RRIRIRPPRLPRPRPRPGINPRP | -0.603 |
| RRIRQRPPRLPRPRPRPGEEPRP | 0.0331 |
| RRIRVRPPRLPRPRPRPMQTPRP | 0.00859 |
| RRIRERPPRLPRPRPRPSWQPRP | -0.00861 |
| RRIRERPPRLPRPRPRPAAMPRP | 0.102 |
| RRIRNRPPRLPRPRPRPHTFPRP | -0.0139 |
| RRIRFRPPRLPRPRPRPDNLPRP | 0.0632 |
| RRIRHRPPRLPRPRPRPFGFPRP | -0.0586 |
| RRIRARPPRLPRPRPRPGDGPRP | 0.939 |
| RRIRIRPPRLPRPRPRPDGMPRP | -0.06 |
| RRIRERPPRLPRPRPRPPNLPRP | 0.0423 |
| RRIRVRPPRLPRPRPRPKNNPRP | -0.406 |
| RRIRARPPRLPRPRPRPYWRPRP | -0.096 |
